Reference: PMC4931565, “Higher‐order assemblies of oligomeric cargo receptor complexes form the membrane scaffold of the Cvt vesicle” (EMBO Reports, 2016)
Residue numbers refer to the chain shown, from its start. Names and notes keep the numbering of the source. Values joined by “and” are separate entries in the source; they are usually repeats but may differ in a detail not shown here. Equal entries are not always repeated.

B1: Saccharomyces cerevisiae mApe1 (mature Ape1 lacking the N-terminal propeptide), P14904 46-514 (natural protein)
chain: EHNYEDIAQEFIDFIYKNPTTYHVVSFFAELLDKHNFKYLSEKSNWQDSIGEDGGKFYTIRNGTNLSAFILGKNWRAEKGVGVIGSHVDALTVKLKPVSFKDTAEGYGRIAVAPYGGTLNELWLDRDLGIGGRLLYKKKGTNEIKSALVDSTPLPVCRIPSLAPHFGKPAEGPFDKEDQTIPVIGFPTPDEEGNEPPTDDEKKSPLFGKHCIHLLRYVAKLAGVEVSELIQMDLDLFDVQKGTIGGIGKHFLFAPRLDDRLCSFAAMIALICYAKDVNTEESDLFSTVTLYDNEEIGSLTRQGAKGGLLESVVERSSSAFTKKPVDLHTVWANSIILSADVNHLYNPNFPEVYLKNHFPVPNVGITLSLDPNGHMATDVVGTALVEELARRNGDKVQYFQIKNNSRSGGTIGPSLASQTGARTIDLGIAQLSMHSIRAATGSKDVGLGVKFFNGFFKHWRSVYDEFGEL
B2: Saccharomyces cerevisiae prApe1 (vacuolar aminopeptidase I with its N-terminal propeptide) (natural protein, S. cerevisiae, UniProt P14904 1-514, looked up)
chain: MEEQREILEQLKKTLQMLTVEPSKNNQIANEEKEKKENENSWCILEHNYEDIAQEFIDFIYKNPTTYHVVSFFAELLDKHNFKYLSEKSNWQDSIGEDGGKFYTIRNGTNLSAFILGKNWRAEKGVGVIGSHVDALTVKLKPVSFKDTAEGYGRIAVAPYGGTLNELWLDRDLGIGGRLLYKKKGTNEIKSALVDSTPLPVCRIPSLAPHFGKPAEGPFDKEDQTIPVIGFPTPDEEGNEPPTDDEKKSPLFGKHCIHLLRYVAKLAGVEVSELIQMDLDLFDVQKGTIGGIGKHFLFAPRLDDRLCSFAAMIALICYAKDVNTEESDLFSTVTLYDNEEIGSLTRQGAKGGLLESVVERSSSAFTKKPVDLHTVWANSIILSADVNHLYNPNFPEVYLKNHFPVPNVGITLSLDPNGHMATDVVGTALVEELARRNGDKVQYFQIKNNSRSGGTIGPSLASQTGARTIDLGIAQLSMHSIRAATGSKDVGLGVKFFNGFFKHWRSVYDEFGEL
notes: vacuolar aminopeptidase I (Ape1) of S. cerevisiae, 55-kDa zymogen including the N-terminal propeptide; only TEV cleavage of MBP is described there; also called sc-prApe1; full-length prApe1; source: Sf21, purified (glutathione beads, 3C cleavage, Superose 6); also co-expressed with MBP-Atg19 in Sf21 and co-purified on amylose beads; not shown: GST, N-terminal, cleaved; copies: 12
B3: Saccharomyces cerevisiae Ams1 (alpha-mannosidase 1), wild type (natural protein, S. cerevisiae, UniProt P22855 1-1083, looked up)
chain: MSSEDIIYDPQFKPVQGIYENRLRQFIDTGGDYHDLNLPKFYDKKRISLDHDHVKVWWYQVSFERGSSPVSPDKRPSWKSIIERDKKGELEFREANINQPFGPSWSTTWFKVKISLPEDWVKSNEQLLFQWDCSNEGIVIDPKTLIPVTAFSGGERTEYVLPKTSDGKHFFYIEAGNNGMFGCGAGSTINPPDDNRFFHLRKADIVWPDLDARALYIDFWMLGDAARELPGDSWQKHQARQLGNAVMNLFDPNDRSSVRKCRELLQREYFDSFLESSKVYEQGESQVLTNVYGIGNCHIDTAWLWPFAETRRKIVRSWSSQCTLMDRFPEYKFVASQAQQFKWLLEDHPEFFNKVLIPKIQQSQFFAVGGTWVENDTNIPSGESLARQFFFGQRFFLKHFGLKSKIFWLPDTFGYSSQMPQLCRLSGIDKFLTQKLSWNNINSFPHSTFNWAGIDGSQLLTHMPPGNTYTADSHFGDVLRTAKQNKTPEYYGSGLMLYGKGDGGGGPTEEMLQKMRRIRSMNNRNGNVIPKLQVGITVDEFYDDILKRTNQGHDLPTWSGELYFEFHRGTYTSQAQTKKLMRLSEIKLHDLEWIAAKTSVLYPDSYKYPSKQINELWENVLLCQFHDVLPGSCIEMVYKYEAVPMLHNVVKECTSLIDKTVQFLQSQSKADLVEMRTLTWSKPEKVSEECSLNGSYTSSVTGYDDYIVLANGKLKVIICKKTGVITSITDETLGVEYLDTEHGRNKLGANQFVIYDDKPLGWQAWDTELYSVNQYKYVTKPKKVQVSCNTKEKCAVEVIFQISEKCKIKSVISLNATAVTDAKLSKVDISTTVENWDARNKFLKVEFPVNIRNDFASYETQFGITKRPTHYNTSWDVAKFEVCHHKFADYSEYSKGVSILNDCKYGFSTHGNLMRLSLLRSPKAPDAHADMGTHEIKYAIYPHRGALSSDTVKLAHEFNYCFKYKLPKDIGMNFDDIISISGDENVILSNIKRGEDDSAVKSNYSLNPRDEQSIVVRVYESLGGESFASLNTTLNLKRIEKVDNLEMKVYKSLTATRDESNHAINRIPIKLRPFEIASFRLYF
notes: alpha-mannosidase 1 (Ams1) of S. cerevisiae, 125-kDa full-length protein (model covers residues up to 1083); Expression from pGAPZ-His6-Ams1; also called His6-Ams1; his-Ams1; source: Pichia pastoris SMD1168, purified
B4: MBP-Atg19 (Saccharomyces cerevisiae Atg19 with N-terminal MBP) (natural protein, S. cerevisiae, UniProt P35193 1-415, looked up)
chain: MNNSKTNQQMNTSMGYPLTVYDECNKFQLIVPTLDANIMLWCIGQLSLLNDSNGCKHLFWQPNDKSNVRILLNNYDYGHLFKYLQCQRKCSVYIGEGTLKKYNLTISTSFDNFLDLTPSEEKESLCREDAHEDPVSPKAGSEEEISPNSTSNVVVSRECLDNFMKQLLKLEESLNKLELEQKVTNKEPNHRISGTIDIPEDRSELVNFFTELKTVKQLEDVFQRYHDYERLSQECDSKTEIASDHSKKETKIEVEPPNERSLQITMNQRDNSLYFQLFNNTNSVLAGNCKLKFTDAGDKPTTQIIDMGPHEIGIKEYKEYRYFPYALDLEAGSTIEIENQYGEVIFLGKYGSSPMINLRPPSRLSAESLQASQEPFYSFQIDTLPELDDSSIISTSISLSYDGDDNEKALTWEEL
notes: autophagy receptor Atg19 of S. cerevisiae, from cDNA; source: Sf21, purified (amylose beads, eluted with maltose); also in Sf21 lysate, co-expressed with prApe1; not shown: MBP, N-terminal, kept
B5: Saccharomyces cerevisiae Ams1 W234E mutant (natural protein, S. cerevisiae, UniProt P22855 1-1083, looked up)
chain: B3 chain with W234E
notes: alpha-mannosidase 1 (Ams1) of S. cerevisiae with W234E in the N-terminal four-helix bundle; Same construct as m4 (pGAPZ-His6-Ams1) with the point mutation; also called W234E dimers; source: Pichia pastoris SMD1168, purified
B6: Saccharomyces cerevisiae Atg19 (MBP tag cleaved) (natural protein, S. cerevisiae, UniProt P35193 1-415, looked up)
chain: B4 chain
notes: autophagy receptor Atg19 of S. cerevisiae, from cDNA; also called trimeric Atg19; source: Sf21, purified (amylose beads, TEV cleavage, DEAE ion exchange); or co-purified with prApe1 (amylose beads, TEV cleavage, Superose 6); not shown: MBP, N-terminal, cleaved

Assays:
[1] = target: Chaetomium thermophilum mApe1 (Chaetomium thermophilum); assay: negative stain EM; purified protein or purified complex, 2% uranyl acetate, droplet technique; particles and class averages
[2] = target: Chaetomium thermophilum mApe1 (Chaetomium thermophilum); assay: crystal structure; ct-mApe1, hanging drop, 4 C, 100 mM Hepes pH 6.6, 4 M sodium formate; 2.8 A
[3] = target: T1, Saccharomyces cerevisiae mApe1 (mature Ape1 lacking the N-terminal propeptide) (S. cerevisiae), P14904; assay: negative stain EM; GraFix-purified sc-mApe1 (10-30% glycerol with 0-0.15% glutaraldehyde gradient, 50 mM Hepes pH 7.5, 150 mM NaCl); 3D reconstruction with tetrahedral symmetry, 24 A; conditions: remark: other sources report otherwise
T1 chain: B1 chain

[4] = target: T1, Saccharomyces cerevisiae mApe1 (mature …); assay: negative stain EM; purified protein or purified complex, 2% uranyl acetate, droplet technique; particles and class averages; conditions: remark: other sources report otherwise
[5] = target: the molecule itself; assay: as above
[6] = target: the molecule itself; assay: cryo-EM structure; His6-Ams1 0.4 mg/ml in 50 mM Tris-HCl, 175 mM NaCl, 75 mM imidazole; D2 symmetry, 6.3 A
[7] = target: B3; assay: pull-down; purified MBP-Atg19 or MBP (1 uM) mixed with his-Ams1 (1 uM), mApe1 (1 uM) or prApe1 (0.7 uM) overnight at 4 C in 50 mM Tris-HCl pH 7.5, 25 mM NaCl, 5 mM MgCl2, 1 mM DTT, 0.2% NP-40; captured on amylose beads; SDS-PAGE, Coomassie; conditions: both partners purified
[8] = target: the molecule itself; assay: SEC-MALS; Atg19 about 2 mg/ml, 50 mM Tris pH 7.5, 150 mM NaCl, 0.5 mM TCEP, Superose 6 increase, room temperature, triplicate

Q: Which results are given for “Chaetomium thermophilum mApe1 (natural protein)”?
A: stoichiometry N [1]: 12; stoichiometry N [2]: 12

Q: B1 was tested. Which stoichiometry N [3] did it give?
A: 12

Q: And the stoichiometry N [4]?
A: 12 and 6

Q: How did the “stoichiometry N” value [5] turn out when B2 was run?
A: 12

Q: Which “stoichiometry N” value [6] does the source give for B3 here?
A: 4

Q: Does B4 bind [7]?
A: binds

Q: For B5, which “stoichiometry N” value [5] is on record?
A: 2

Q: How did the “stoichiometry N” value [8] turn out when B6 was run?
A: 3
